In patent US20090325168:

How the values were obtained:
[1] = target: T1, Fm-G2D2D, Fm-K[F1]DBGDEVDGIDGPK[F1]GY (compound 10 of Table 12)
T1 chain: KDXGDEVDGIDGPKGY

[2] = target: T2, Fm-CGD2D, Fm-K[F1]DBJGDEVDGIDGJPK[F1]GY (compound 11 of Table 12)
T2 chain: KDXXGDEVDGIDGXPKGY

B1: CPP32 protease (protein)
chain: SGISLDNSYKMDYPEMGLCIIINNKNFHKSTGMTSRSGTDVDAANLRETFRNLKYEVRNKNDLTREEIVELMRDVSKEDHSKRSSFVCVLLSHGEEGIIFGTNGPVDLKKITNFFRGDRCRSLTGKPKLFIIQACRGTELDCGIETDSGVDDDMACHKIPVEADFLYAYSTAPGYYSWRNSKDGSWFIQSLCAMLKQYADKLEFMHILTRVNRKVATEFESFSFDATFHAKKQIPCIVSMLTKELYFYH
hydrolysis rate, fold increase over compound 4 (Fm-DEVD) [1]: The hydrolysis rate was increased by 3-fold between compounds 4 ... and 10 | hydrolysis rate, fold increase over compound 10 (Fm-G2D2D) [2]: the hydrolysis rate was further increased by ca. 3-fold over the above glycine residue insertion | substrate hydrolysis rate, fold increase over compound 4 (Fm-DEVD) [2]: overall at least a 9-fold increase in substrate hydrolysis rate was accomplished (compounds 4 and 11, Table 12)
